Results taken from the supplement of paper PMC10598134.
± gives the standard deviation.

Assay: collision cross section of modified peptide (TIMS, N2, iRT-aligned); higher = larger / more extended gas-phase ion
How it was run: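 Collision cross section values rest on the Mason-Schamp equation applied to calibrated, run-aligned mobility data from synthetic peptides. Mobility (1/K0) was calibrated with three reference ions and aligned per run to the median iRT peptide deviation, and 1–3 technical replicates of the most abundant feature per charge state were averaged. Data came from a timsTOF Pro/HT in dda-PASEF mode (nitrogen, ~2.4 mbar) after a 120-min nanoflow C18 gradient at 60 °C.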

[1] = charge state: 2, modification: Citrullination (R)
[2] = charge state: 3, modification: Citrullination (R)
[3] = charge state: 3, modification: Methyl (R)
[4] = charge state: 2, modification: Nitro (Y)
[5] = charge state: 2, modification: Phospho (Y)
[6] = charge state: 2, modification: HexNAc (ST)
[7] = charge state: 2, modification: Hydroxyproline
[8] = charge state: 2, modification: Methyl (R)

GPPRGGPGGELPR [_GPPR(Citrullination (R))GGPGGELPR_]
collision cross section [1]: 368.26 ± 0.27 Å² | collision cross section [2]: 454.52 ± 3.7 Å²

GPPRGGPGGELPR [_GPPR(Methyl (R))GGPGGELPR_]
collision cross section [3]: 472.6 ± 2.6 Å²

GPQNATDSYVHK [_GPQNATDSY(Nitro (Y))VHK_]
collision cross section [4]: 386.3 ± 0.94 Å² | collision cross section (charge state: 3, modification: Nitro (Y)): 449.51 ± 0.23 Å²

GPQNATDSYVHK [_GPQNATDSY(Phospho (Y))VHK_]
collision cross section [5]: 396.29 ± 0.77 Å² | collision cross section (charge state: 3, modification: Phospho (Y)): 452.94 ± 1.8 Å²

GQDSTIAASEQQVAAR [_GQDS(HexNAc (ST))TIAASEQQVAAR_]
collision cross section [6]: 438.46 ± 0.56 Å² | collision cross section (charge state: 3, modification: HexNAc (ST)): 532.78 ± 0.19 Å²

GQKGEPGLPGHPGK [_GQKGEPGLP(Hydroxyproline)GHPGK_]
collision cross section [7]: 379.44 ± 1.1 Å² | collision cross section (charge state: 3, modification: Hydroxyproline): 420.23 ± 0.34 Å²

GQQGEPGPK [_GQQGEP(Hydroxyproline)GPK_]
collision cross section [7]: 313.43 ± 0.56 Å²

GRGAAAAGGPQR [_GR(Citrullination (R))GAAAAGGPQR_]
collision cross section [1]: 334.88 ± 0.28 Å²

GRGAAAAGGPQR [_GR(Methyl (R))GAAAAGGPQR_]
collision cross section [8]: 338.98 ± 2.7 Å² | collision cross section [3]: 434.02 ± 3.5 Å²

GRGAANDSTQFTVAGR [_GR(Citrullination (R))GAANDSTQFTVAGR_]
collision cross section [1]: 411.84 ± 0.81 Å² | collision cross section [2]: 488.59 ± 0.56 Å²

GRGAANDSTQFTVAGR [_GR(Methyl (R))GAANDSTQFTVAGR_]
collision cross section [3]: 468.2 ± 2.7 Å²

GRGAPPPPPSR [_GR(Citrullination (R))GAPPPPPSR_]
collision cross section [1]: 339.21 ± 1.2 Å²

GRGAPPPPPSR [_GR(Methyl (R))GAPPPPPSR_]
collision cross section [8]: 339.22 Å² | collision cross section [3]: 437.5 Å²

GRGGAESHTFK [_GR(Citrullination (R))GGAESHTFK_]
collision cross section [1]: 374.44 ± 0.39 Å² | collision cross section [2]: 436.66 ± 2.2 Å²

GRGGAESHTFK [_GR(Methyl (R))GGAESHTFK_]
collision cross section [8]: 352.3 ± 2.4 Å² | collision cross section [3]: 441.34 ± 2.6 Å²

GRGGPGPAQR [_GR(Citrullination (R))GGPGPAQR_]
collision cross section [1]: 319.56 ± 0.91 Å²

GRGGPGPAQR [_GR(Methyl (R))GGPGPAQR_]
collision cross section [8]: 327.6 ± 3 Å² | collision cross section [3]: 431.84 ± 5.1 Å²

GRGLPGPAESLR [_GR(Citrullination (R))GLPGPAESLR_]
collision cross section [1]: 366.62 ± 0.53 Å²

GRGLPGPAESLR [_GR(Methyl (R))GLPGPAESLR_]
collision cross section [3]: 459.68 ± 1.5 Å²

GRGTGEAEEEYVGPR [_GR(Citrullination (R))GTGEAEEEYVGPR_]
collision cross section [1]: 411.48 ± 0.42 Å² | collision cross section [2]: 487 ± 5.6 Å²

GRGTGEAEEEYVGPR [_GR(Methyl (R))GTGEAEEEYVGPR_]
collision cross section [3]: 491.55 ± 1.6 Å²

GRGTSQLAEGATAK [_GR(Citrullination (R))GTSQLAEGATAK_]
collision cross section [1]: 396.62 ± 1 Å²

GRGTSQLAEGATAK [_GR(Methyl (R))GTSQLAEGATAK_]
collision cross section [8]: 391.78 ± 1.4 Å² | collision cross section [3]: 464.6 ± 2.7 Å²

GRGVGSPEPGPTAPYLGR [_GR(Citrullination (R))GVGSPEPGPTAPYLGR_]
collision cross section [1]: 422.7 ± 0.55 Å² | collision cross section [2]: 509.44 ± 39 Å²

GRGVGSPEPGPTAPYLGR [_GR(Methyl (R))GVGSPEPGPTAPYLGR_]
collision cross section [3]: 520.34 ± 0.91 Å²

GRGVGSPEPGPTAPYLGRR [_GR(Citrullination (R))GVGSPEPGPTAPYLGRR_]
collision cross section [2]: 497.66 ± 1.9 Å²

GRGYFEHR [_GR(Citrullination (R))GYFEHR_]
collision cross section [1]: 339.49 ± 1.6 Å² | collision cross section [2]: 411.67 ± 1.3 Å²

GRGYFEHR [_GR(Methyl (R))GYFEHR_]
collision cross section [8]: 342.05 Å² | collision cross section [3]: 410.57 ± 5.9 Å²

GSAPPGPVPEGSIR [_GS(HexNAc (ST))APPGPVPEGSIR_]
collision cross section [6]: 399.5 ± 0.63 Å²

GSELQNYFTK [_GSELQNY(Nitro (Y))FTK_]
collision cross section [4]: 363.07 ± 0.55 Å²

GSELQNYFTK [_GSELQNY(Phospho (Y))FTK_]
collision cross section [5]: 373.39 ± 0.68 Å²
